Measured values from paper PMC11079029, “Intramolecular autoinhibition regulates the selectivity of PRPF40A tandem WW domains for proline-rich motifs” (Nature Communications, 2024).
Several values for one entry are separate records, joined by “and”; a condition that tells them apart may be missing. Equal values may be shown once.

B1: GB1-SF1 Pro C (residues 539-594) (domain or fragment, UniProt Q15637 539-594, looked up)
chain: GSIPPWQQQQAAAAASPGAPQMQGNPTMVPLPPGVQPPLPPGAPPPPPPPPPGSAG
notes: splicing factor 1 (SF1), residues 539-594 of the proline-rich C-terminal region (holds the WWbs motif 575-590); His6-GB1-TEV site cassette of the pET24 vector, not cleaved; source: E. coli BL21(DE3), purified (Ni-NTA, SEC); not shown: GB1, N-terminal, kept
B2: GB1-SF1 Pro C (residues 539-594) (domain or fragment, UniProt Q15637 539-594, looked up)
chain: GSIPPWQQQQAAAAASPGAPQMQGNPTMVPLPPGVQPPLPPGAPPPPPPPPPGSAG
notes: SF1 (splicing factor 1) residues 539-594; pET24 vector with 6xHis, GB1 and TEV site as N-terminal cassette, not cleaved; source: E. coli BL21(DE3), purified (Ni-NTA, SEC); not shown: GB1, N-terminal, kept
B3: GB1-polyproline peptide P13 (peptide)
chain: GAMSGSPPPPPPPPPPPPPSGSN
notes: common N-terminal residues after the TEV site (TEVsite-GAMSGS-peptide-SGSN); 13 consecutive prolines; common C-terminal residues; pET24 vector with 6xHis, GB1 and TEV site as N-terminal cassette, not cleaved; also called polyproline length 13; source: E. coli BL21(DE3), purified (Ni-NTA, SEC); not shown: GB1, N-terminal, kept
B4: GB1-polyproline peptide P29 (peptide)
chain: GAMSGSPPPPPPPPPPPPPPPPPPPPPPPPPPPPPSGSN
notes: common N-terminal residues after the TEV site (TEVsite-GAMSGS-peptide-SGSN); 29 consecutive prolines; common C-terminal residues; pET24 vector with 6xHis, GB1 and TEV site as N-terminal cassette, not cleaved; also called polyproline length 29; source: E. coli BL21(DE3), purified (Ni-NTA, SEC); not shown: GB1, N-terminal, kept
B5: GB1-SF1 Pro A (residues 410-468) (domain or fragment, UniProt Q15637 410-468, looked up)
chain: GHPMQHNPNGPPPPWMQPPPPPMNQGPHPPGHHGPPPMDQYLGSTPVGSGVYRLHQGKG
notes: splicing factor 1 (SF1), residues 410-468 of the proline-rich C-terminal region; His6-GB1-TEV site cassette of the pET24 vector, not cleaved; source: E. coli BL21(DE3), purified (Ni-NTA, SEC); not shown: GB1, N-terminal, kept
B6: GB1-SF1 Pro A (residues 410-468) (domain or fragment, UniProt Q15637 410-468, looked up)
chain: GHPMQHNPNGPPPPWMQPPPPPMNQGPHPPGHHGPPPMDQYLGSTPVGSGVYRLHQGKG
notes: SF1 (splicing factor 1) residues 410-468 of the proline-rich C-terminal region; pET24 vector with 6xHis, GB1 and TEV site as N-terminal cassette, not cleaved; source: E. coli BL21(DE3), purified (Ni-NTA, SEC); not shown: GB1, N-terminal, kept
B7: GB1-polyproline peptide P25 (peptide)
chain: GAMSGSPPPPPPPPPPPPPPPPPPPPPPPPPSGSN
notes: common N-terminal residues after the TEV site (TEVsite-GAMSGS-peptide-SGSN); 25 consecutive prolines; common C-terminal residues; pET24 vector with 6xHis, GB1 and TEV site as N-terminal cassette, not cleaved; also called polyproline length 25; source: E. coli BL21(DE3), purified (Ni-NTA, SEC); not shown: GB1, N-terminal, kept
B8: GB1-polyproline peptide P22 (peptide)
chain: GAMSGSPPPPPPPPPPPPPPPPPPPPPPSGSN
notes: common N-terminal residues after the TEV site (TEVsite-GAMSGS-peptide-SGSN); 22 consecutive prolines; common C-terminal residues; pET24 vector with 6xHis, GB1 and TEV site as N-terminal cassette, not cleaved; also called polyproline length 22; source: E. coli BL21(DE3), purified (Ni-NTA, SEC); not shown: GB1, N-terminal, kept
B9: GB1-SF1 Pro BC (residues 468-594) (domain or fragment, UniProt Q15637 468-594, looked up)
chain: GMMPPPPMGMMPPPPPPPSGQPPPPPSGPLPPWQQQQQQPPPPPPPSSSMASSTPLPWQQNTTTTTTSAGTGSIPPWQQQQAAAAASPGAPQMQGNPTMVPLPPGVQPPLPPGAPPPPPPPPPGSAG
notes: splicing factor 1 (SF1), residues 468-594; His6-GB1-TEV site cassette of the pET24 vector, not cleaved; also called SF1 BC; source: E. coli BL21(DE3), purified (Ni-NTA, SEC); not shown: GB1, N-terminal, kept
B10: GB1-SF1 Pro BC (residues 468-594) (domain or fragment, UniProt Q15637 468-594, looked up)
chain: GMMPPPPMGMMPPPPPPPSGQPPPPPSGPLPPWQQQQQQPPPPPPPSSSMASSTPLPWQQNTTTTTTSAGTGSIPPWQQQQAAAAASPGAPQMQGNPTMVPLPPGVQPPLPPGAPPPPPPPPPGSAG
notes: SF1 (splicing factor 1) residues 468-594; pET24 vector with 6xHis, GB1 and TEV site as N-terminal cassette, not cleaved; source: E. coli BL21(DE3), purified (Ni-NTA, SEC); not shown: GB1, N-terminal, kept
B11: GB1-polyproline peptide P8 (peptide)
chain: GAMSGSPPPPPPPPSGSN
notes: common N-terminal residues after the TEV site (TEVsite-GAMSGS-peptide-SGSN); 8 consecutive prolines; common C-terminal residues; pET24 vector with 6xHis, GB1 and TEV site as N-terminal cassette, not cleaved; also called polyproline length 8; source: E. coli BL21(DE3), purified (Ni-NTA, SEC); not shown: GB1, N-terminal, kept
B12: GB1-SF1 Pro B (residues 468-539) (domain or fragment, UniProt Q15637 468-539, looked up)
chain: GMMPPPPMGMMPPPPPPPSGQPPPPPSGPLPPWQQQQQQPPPPPPPSSSMASSTPLPWQQNTTTTTTSAGTG
notes: splicing factor 1 (SF1), residues 468-539 of the proline-rich C-terminal region; His6-GB1-TEV site cassette of the pET24 vector, not cleaved; source: E. coli BL21(DE3), purified (Ni-NTA, SEC); not shown: GB1, N-terminal, kept
B13: GB1-SF1 Pro B (residues 468-539) (domain or fragment, UniProt Q15637 468-539, looked up)
chain: GMMPPPPMGMMPPPPPPPSGQPPPPPSGPLPPWQQQQQQPPPPPPPSSSMASSTPLPWQQNTTTTTTSAGTG
notes: SF1 (splicing factor 1) residues 468-539 of the proline-rich C-terminal region; pET24 vector with 6xHis, GB1 and TEV site as N-terminal cassette, not cleaved; source: E. coli BL21(DE3), purified (Ni-NTA, SEC); not shown: GB1, N-terminal, kept
B14: GB1-polyproline peptide P19 (peptide)
chain: GAMSGSPPPPPPPPPPPPPPPPPPPSGSN
notes: common N-terminal residues after the TEV site (TEVsite-GAMSGS-peptide-SGSN); 19 consecutive prolines; common C-terminal residues; pET24 vector with 6xHis, GB1 and TEV site as N-terminal cassette, not cleaved; also called polyproline length 19; source: E. coli BL21(DE3), purified (Ni-NTA, SEC); not shown: GB1, N-terminal, kept

Experiments:
Settings in all cases: both partners purified
[1] = biological target: T1, PRPF40A WW12 (tandem WW domains, residues 141-236) (human, UniProt O75400 141-236); experiment: ITC; GB1-peptide or GB1-SF1 construct in the cell, PRPF40A WW12 in the syringe (as shown in Supplementary Figures 7 and 16A); 25 °C, 20 mM sodium phosphate pH 6.5, 100 mM NaCl; one-site binding model; at least duplicates; affinities apparent
T1 construct: A few vector residues probably remain at the N-terminus after TEV cleavage (pETM11, NcoI site); 15N-labelled in the NMR experiments; also called PRPF40A WW tandem; WW12 wt; source: E. coli BL21(DE3), purified (Ni-NTA, TEV digestion, reverse Ni-NTA, SEC); not shown: His6, N-terminal, cleaved

[2] = biological target: T2, PRPF40A WW12 (tandem WW domains, residues 141-236) (human, UniProt O75400 141-236); experiment: ITC; MicroCal PEAQ-ITC, 25 °C, 20 mM sodium phosphate pH 6.5, 100 mM NaCl; GB1-tagged SF1/SF3A1 constructs in the syringe, WW12 in the cell (N sites <1: more than one WW tandem on one construct); one-site model; apparent
T2 construct: pETM11 vector (NcoI/KpnI); also called PRPF40A WW tandem; isolated WW domains; source: E. coli BL21(DE3), purified (Ni-NTA, TEV cleavage, reverse Ni-NTA, SEC); not shown: His6, N-terminal, cleaved

[3] = biological target: T2, PRPF40A WW12 (tandem WW domains, …); experiment: ITC; MicroCal PEAQ-ITC, 25 °C, 20 mM sodium phosphate pH 6.5, 100 mM NaCl; GB1-polyproline peptides in the cell, WW12 in the syringe (N sites >1: more than one WW tandem on one peptide); one-site model; apparent
[4] = biological target: T1, PRPF40A WW12 (tandem WW domains, …); experiment: ITC; PRPF40A construct (WW12, N-ext-WW12 or its mutant) in the cell, GB1-SF1 or GB1-SF3A1 construct in the syringe (as shown in Supplementary Figures 16 and 21); 25 °C, 20 mM sodium phosphate pH 6.5, 100 mM NaCl; one-site binding model; at least duplicates; affinities apparent

Binder	Kd [1] [µM]	Kd [3]	further results
B1	2.02 ± 0.09		
B2			Kd [2]: 2.1 µM and 1.94 µM and 2.02 µM; stoichiometry N [2]: 0.87 and 0.88
B3		7.58 µM and 10.6 µM and 7.45 µM and 8.54 µM	
B4		7.3 µM and 11 µM and 9.15 µM	
PPPPPPPPPPPPPPPPPPP	6.76 ± 0.96		
B5	25.1 ± 6.5		
B6			Kd [2]: 24.8 µM and 25.4 µM and 25.1 µM; stoichiometry N [2]: 0.97 and 1 and 0.99
B7		10.5 µM and 11 µM and 10.8 µM	
B8		8.84 µM and 9.73 µM and 9.29 µM	
B9			stoichiometry N [4]: 0.53 ± 0.05 sites
B10			stoichiometry N [2]: 0.5 and 0.6 and 0.53
B11		> 50 µM	
TMVPLPPGVQPPLPPG [GB1-SF1 16-mer peptide 565-580]	30.4 ± 6.7		
B12	20.6 ± 4.9		
B13			Kd [2]: 15.7 µM and 16.1 µM and 20.6 µM; stoichiometry N [2]: 1.3 and 1.15
B14		7.02 µM and 6.5 µM and 6.76 µM	
PPPPPPPPPPPPPPPPPPPPPP	9.29 ± 0.88		
